Assay results as given in the supplement of paper PMC10065799, “High-throughput profiling of sequence recognition by tyrosine kinases and SH2 domains using bacterial peptide display” (eLife, 2023).

Assays:
AncSZ = experiment: phosphorylation enrichment, bacterial display (enrichment ratio); higher = better substrate or ligand; peptides without Tyr show the background
EPHB1 = EPHB1 (UniProt P54762); experiment: as above
EPHB2 = EPHB2 (UniProt P29323); experiment: as above
FGFR1 = FGFR1 (UniProt P11362); experiment: as above
FGFR3 = FGFR3 (UniProt P22607); experiment: as above
Fer (mouse) = experiment: as above
Fes = Fes (UniProt P07332); experiment: as above
Fyn = Fyn (UniProt P06241); experiment: as above
Hck = Hck (UniProt P08631); experiment: as above
Jak2 = Jak2 (UniProt O60674); experiment: as above
MERTK = MERTK (UniProt Q12866); experiment: as above
c-Abl (mouse) = experiment: as above
c-Src = experiment: as above
Grb2 SH2 = Grb2 SH2 (UniProt P62993); experiment: SH2 binding enrichment of the phosphorylated peptide, bacterial display (enrichment ratio); higher = better substrate or ligand; peptides without Tyr show the background
SHP2-C SH2 = experiment: as above
c-Src SH2 = experiment: as above
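Wherever SH2 binding enrichment of the phosphorylated peptide, bacterial display is given: peptide library displayed on the E. coli surface as eCPX fusions, selected cells deep-sequenced, score is each peptide's frequency after selection divided by its frequency in the input.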
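Wherever phosphorylation enrichment, bacterial display is given: 11-residue human phosphosite peptides and single-mutation variants displayed on the E. coli surface, counted by deep sequencing, each peptide's frequency after selection divided by its frequency in the unselected input library; frequency after pTyr selection over input frequency; kinase dosed for 20-30% of maximal phosphorylation in three min.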

Chain of Hck (P08631 whole entry, looked up): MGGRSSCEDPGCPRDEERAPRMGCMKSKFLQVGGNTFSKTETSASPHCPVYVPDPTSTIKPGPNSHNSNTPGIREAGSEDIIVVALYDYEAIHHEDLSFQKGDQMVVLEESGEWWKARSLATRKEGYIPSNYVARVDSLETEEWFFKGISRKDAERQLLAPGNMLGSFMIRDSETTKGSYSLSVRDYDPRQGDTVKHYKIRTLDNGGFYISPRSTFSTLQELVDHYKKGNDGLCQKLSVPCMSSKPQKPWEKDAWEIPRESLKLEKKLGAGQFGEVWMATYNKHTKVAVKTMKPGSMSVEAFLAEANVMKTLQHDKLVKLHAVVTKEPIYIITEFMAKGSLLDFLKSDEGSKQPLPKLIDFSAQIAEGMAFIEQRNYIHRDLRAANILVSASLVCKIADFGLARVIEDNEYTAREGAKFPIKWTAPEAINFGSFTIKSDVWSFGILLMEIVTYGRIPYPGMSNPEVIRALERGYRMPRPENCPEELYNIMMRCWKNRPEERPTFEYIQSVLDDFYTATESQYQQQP
Chain of EPHB2 (P29323 whole entry, looked up): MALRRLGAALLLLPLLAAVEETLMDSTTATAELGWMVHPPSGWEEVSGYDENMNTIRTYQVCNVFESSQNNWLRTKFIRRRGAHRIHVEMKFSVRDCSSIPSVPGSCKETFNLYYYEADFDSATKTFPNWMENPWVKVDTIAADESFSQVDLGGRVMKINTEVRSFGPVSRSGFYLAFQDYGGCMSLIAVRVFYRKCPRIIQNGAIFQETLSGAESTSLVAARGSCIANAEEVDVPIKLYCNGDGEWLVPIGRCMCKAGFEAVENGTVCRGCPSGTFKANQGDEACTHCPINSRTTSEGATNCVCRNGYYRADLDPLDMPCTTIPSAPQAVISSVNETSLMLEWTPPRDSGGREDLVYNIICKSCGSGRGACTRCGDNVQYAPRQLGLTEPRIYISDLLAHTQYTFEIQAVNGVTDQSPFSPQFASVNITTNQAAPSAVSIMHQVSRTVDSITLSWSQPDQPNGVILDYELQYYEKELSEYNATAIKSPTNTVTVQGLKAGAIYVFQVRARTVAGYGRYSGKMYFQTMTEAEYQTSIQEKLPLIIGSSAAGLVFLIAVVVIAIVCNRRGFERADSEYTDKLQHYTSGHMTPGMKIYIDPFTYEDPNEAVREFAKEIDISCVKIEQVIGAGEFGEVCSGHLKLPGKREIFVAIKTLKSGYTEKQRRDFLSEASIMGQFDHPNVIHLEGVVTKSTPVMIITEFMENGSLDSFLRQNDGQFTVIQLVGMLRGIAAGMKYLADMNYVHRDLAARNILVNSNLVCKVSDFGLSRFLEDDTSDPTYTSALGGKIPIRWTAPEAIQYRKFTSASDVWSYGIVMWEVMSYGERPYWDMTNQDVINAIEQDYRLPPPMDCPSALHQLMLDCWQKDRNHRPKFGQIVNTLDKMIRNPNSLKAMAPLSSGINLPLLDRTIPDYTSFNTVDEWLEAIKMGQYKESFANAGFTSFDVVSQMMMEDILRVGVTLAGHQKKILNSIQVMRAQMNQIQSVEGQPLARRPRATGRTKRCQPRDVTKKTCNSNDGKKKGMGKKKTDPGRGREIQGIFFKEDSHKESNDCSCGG
Chain of FGFR3 (P22607 whole entry, looked up): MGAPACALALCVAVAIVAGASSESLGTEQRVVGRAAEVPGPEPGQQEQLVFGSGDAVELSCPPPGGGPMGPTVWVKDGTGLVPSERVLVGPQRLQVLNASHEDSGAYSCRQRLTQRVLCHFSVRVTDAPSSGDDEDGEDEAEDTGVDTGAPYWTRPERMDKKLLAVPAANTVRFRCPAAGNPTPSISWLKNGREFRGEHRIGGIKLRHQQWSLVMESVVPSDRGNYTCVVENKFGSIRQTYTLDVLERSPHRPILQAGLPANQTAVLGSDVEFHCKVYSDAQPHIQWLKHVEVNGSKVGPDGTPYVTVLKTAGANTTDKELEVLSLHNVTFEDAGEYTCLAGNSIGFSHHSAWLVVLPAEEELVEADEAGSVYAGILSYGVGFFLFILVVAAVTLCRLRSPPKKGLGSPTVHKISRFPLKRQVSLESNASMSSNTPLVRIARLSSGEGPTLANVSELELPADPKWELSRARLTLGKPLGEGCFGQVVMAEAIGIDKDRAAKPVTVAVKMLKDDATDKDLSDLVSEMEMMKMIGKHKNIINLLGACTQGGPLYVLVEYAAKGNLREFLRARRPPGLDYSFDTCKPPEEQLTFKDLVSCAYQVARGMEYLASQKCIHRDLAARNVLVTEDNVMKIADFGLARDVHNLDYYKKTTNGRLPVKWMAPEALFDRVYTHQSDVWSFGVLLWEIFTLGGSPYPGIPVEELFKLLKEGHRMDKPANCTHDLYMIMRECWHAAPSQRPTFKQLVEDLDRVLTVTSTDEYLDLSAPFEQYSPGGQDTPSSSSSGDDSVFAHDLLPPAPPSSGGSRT
Chain of FGFR1 (P11362 whole entry, looked up): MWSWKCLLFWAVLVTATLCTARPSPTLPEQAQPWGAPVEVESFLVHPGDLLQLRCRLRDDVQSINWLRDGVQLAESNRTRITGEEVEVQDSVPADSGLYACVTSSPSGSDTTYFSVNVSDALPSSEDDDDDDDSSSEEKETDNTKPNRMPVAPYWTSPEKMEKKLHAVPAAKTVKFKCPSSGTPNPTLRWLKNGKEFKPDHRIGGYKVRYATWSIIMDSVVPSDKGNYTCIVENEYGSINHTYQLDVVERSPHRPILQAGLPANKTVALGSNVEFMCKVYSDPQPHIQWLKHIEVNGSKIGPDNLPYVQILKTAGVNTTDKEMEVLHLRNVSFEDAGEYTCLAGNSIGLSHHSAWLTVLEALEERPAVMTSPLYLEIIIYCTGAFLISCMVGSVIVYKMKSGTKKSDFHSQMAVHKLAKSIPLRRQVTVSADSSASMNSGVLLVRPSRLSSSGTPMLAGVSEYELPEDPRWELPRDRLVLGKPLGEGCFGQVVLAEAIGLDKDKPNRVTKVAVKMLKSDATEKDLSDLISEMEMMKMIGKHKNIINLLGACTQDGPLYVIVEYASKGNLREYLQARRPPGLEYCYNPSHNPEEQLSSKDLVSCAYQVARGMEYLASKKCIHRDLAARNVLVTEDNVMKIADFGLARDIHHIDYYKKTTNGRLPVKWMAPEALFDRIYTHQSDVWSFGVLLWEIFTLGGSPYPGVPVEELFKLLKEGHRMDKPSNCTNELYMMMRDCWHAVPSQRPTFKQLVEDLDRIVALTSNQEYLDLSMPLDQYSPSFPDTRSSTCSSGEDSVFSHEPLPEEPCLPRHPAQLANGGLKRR
Chain of Jak2 (O60674 whole entry, looked up): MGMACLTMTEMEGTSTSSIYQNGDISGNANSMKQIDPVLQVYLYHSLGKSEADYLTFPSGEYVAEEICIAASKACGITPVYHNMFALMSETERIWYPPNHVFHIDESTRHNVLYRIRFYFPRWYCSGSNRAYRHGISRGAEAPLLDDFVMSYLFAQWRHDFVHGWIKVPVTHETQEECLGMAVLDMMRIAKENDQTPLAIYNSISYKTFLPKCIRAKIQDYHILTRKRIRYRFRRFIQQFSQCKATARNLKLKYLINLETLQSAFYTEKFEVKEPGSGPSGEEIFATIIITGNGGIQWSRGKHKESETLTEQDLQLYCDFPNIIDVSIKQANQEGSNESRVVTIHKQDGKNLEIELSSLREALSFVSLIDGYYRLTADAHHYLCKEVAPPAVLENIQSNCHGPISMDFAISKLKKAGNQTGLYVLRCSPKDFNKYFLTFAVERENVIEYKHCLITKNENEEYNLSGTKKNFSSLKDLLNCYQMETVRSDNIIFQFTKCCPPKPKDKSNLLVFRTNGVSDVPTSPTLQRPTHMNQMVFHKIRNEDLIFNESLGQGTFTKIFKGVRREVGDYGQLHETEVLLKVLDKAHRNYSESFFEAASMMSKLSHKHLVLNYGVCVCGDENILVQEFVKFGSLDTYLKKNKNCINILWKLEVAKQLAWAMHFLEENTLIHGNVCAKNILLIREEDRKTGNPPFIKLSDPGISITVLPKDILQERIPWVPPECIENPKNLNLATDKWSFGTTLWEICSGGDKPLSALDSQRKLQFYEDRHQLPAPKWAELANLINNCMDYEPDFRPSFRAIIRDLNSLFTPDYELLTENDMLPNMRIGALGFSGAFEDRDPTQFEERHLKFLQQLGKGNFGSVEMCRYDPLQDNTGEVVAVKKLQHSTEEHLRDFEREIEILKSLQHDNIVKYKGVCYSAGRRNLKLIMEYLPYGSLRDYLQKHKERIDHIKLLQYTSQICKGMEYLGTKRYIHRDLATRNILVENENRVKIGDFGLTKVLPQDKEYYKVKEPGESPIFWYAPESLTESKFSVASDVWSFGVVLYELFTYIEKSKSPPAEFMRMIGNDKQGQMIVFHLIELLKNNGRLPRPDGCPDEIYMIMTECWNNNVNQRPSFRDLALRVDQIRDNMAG
Chain of Fyn (P06241 whole entry, looked up): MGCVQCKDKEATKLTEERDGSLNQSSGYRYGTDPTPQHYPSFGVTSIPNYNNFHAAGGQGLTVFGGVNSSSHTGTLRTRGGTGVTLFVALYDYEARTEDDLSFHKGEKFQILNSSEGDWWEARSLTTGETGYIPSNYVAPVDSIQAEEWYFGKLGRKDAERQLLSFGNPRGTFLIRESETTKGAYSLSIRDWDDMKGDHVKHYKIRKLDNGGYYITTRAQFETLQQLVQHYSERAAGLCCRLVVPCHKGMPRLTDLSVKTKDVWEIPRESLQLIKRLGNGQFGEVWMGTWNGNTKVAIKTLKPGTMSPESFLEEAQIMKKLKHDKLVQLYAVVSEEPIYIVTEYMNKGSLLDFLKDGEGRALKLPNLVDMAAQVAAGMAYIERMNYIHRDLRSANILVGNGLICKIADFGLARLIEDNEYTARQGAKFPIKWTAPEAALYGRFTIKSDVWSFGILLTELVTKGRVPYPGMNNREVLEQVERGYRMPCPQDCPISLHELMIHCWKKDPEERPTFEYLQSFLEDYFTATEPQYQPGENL

Sequence	SH2 binding enrichment (Grb2 SH2)	SH2 binding enrichment (SHP2-C SH2)	SH2 binding enrichment (c-Src SH2)	phosphorylation enrichment (AncSZ)	phosphorylation enrichment (EPHB1)	phosphorylation enrichment (EPHB2)	phosphorylation enrichment (FGFR1)	phosphorylation enrichment (FGFR3)	phosphorylation enrichment (Fer (mouse))	phosphorylation enrichment (Fes)	phosphorylation enrichment (Fyn)	phosphorylation enrichment (Hck)	phosphorylation enrichment (Jak2)	phosphorylation enrichment (MERTK)	phosphorylation enrichment (c-Abl (mouse))	phosphorylation enrichment (c-Src)
PMDTFYDSTRG [DYNC2H1_Y2231_YF]	1.04	0.646	1.08	1.08	0.919	1.04	0.714	0.806	1.43	1.05	0.982	1.71	0.892	0.501	0.582	0.664
PPAPRYHDSAV [LZTR1_Y119_H121D]	0.729	0.508	0.551	0.73	0.658	0.476	0.532	0.711	0.448	0.877	0.861	0.684	0.979	0.741	0.743	0.728
PPKFFYTRKLL [CYBB_Y41]	1.01	0.709	0.461	1.12	0.457	0.683	1.22	0.614	0.513	0.801	0.779	0.462	0.658	0.766	0.694	0.439
PPPELYFVKVD [TERT_Y707]	1.18	1.04	0.534	1.76	0.629	0.49	0.638	1.28	0.626	1.81	0.962	1.4	2.84	2.69	1.19	1.55
PQAVTYAKVKH [LILRB4_Y360]	0.759	82.1	2.6	0.405	0.421	0.286	0.398	0.334	0.424	0.515	0.294	0.509	0.577	0.339	0.573	0.708
PQAVTYATVKH [LILRB4_Y360_K362T]	0.851	85.4	3.11	0.655	0.735	0.615	0.423	0.607	0.624	0.776	1.72	2.92	0.882	0.543	0.856	2.83
PQDVTYARLHS [LILRB4_Y412_Q414R]	0.85	5.59	1.12	0.757	0.808	0.797	0.774	0.603	0.786	1.51	1.91	4.33	0.518	0.735	0.842	2.3
PQIVNYSPDCI [LDHB_Y128_K127N]	0.891	0.492	0.506	0.415	0.668	0.451	0.684	0.939	0.83	0.824	0.457	1	0.254	0.179	0.216	0.387
PRPACYPSTVS [CACNA1C_Y1832_G1831C]	0.865	0.8	0.65	0.554	0.575	0.435	0.49	0.598	0.381	0.792	0.51	0.49	0.721	0.356	0.437	0.484

Second part, led by results:

SH2 binding enrichment (Grb2 SH2)	SH2 binding enrichment (SHP2-C SH2)	SH2 binding enrichment (c-Src SH2)	Sequence	phosphorylation enrichment (AncSZ)	phosphorylation enrichment (EPHB1)	phosphorylation enrichment (EPHB2)	phosphorylation enrichment (FGFR1)	phosphorylation enrichment (FGFR3)	phosphorylation enrichment (Fer (mouse))	phosphorylation enrichment (Fes)	phosphorylation enrichment (Fyn)	phosphorylation enrichment (Hck)	phosphorylation enrichment (Jak2)	phosphorylation enrichment (MERTK)	phosphorylation enrichment (c-Abl (mouse))	phosphorylation enrichment (c-Src)
0.82	0.634	0.574	PLFKIYVAELI [MRPL28_Y230]	2.14	0.919	0.772	0.806	1.54	0.978	2.35	0.658	0.738	1.71	0.707	0.947	0.791
0.807	0.638	1.54	PLQKIYNYNVL [SLC4A1_Y553_T552I]	0.585	0.773	1.05	0.514	1.04	0.582	1	0.409	0.564	1.05	1.09	0.748	1.32
0.724	0.474	0.421	PMFTKYGNGLL [RPGRIP1L_Y196_S199G]	1.28	0.762	0.525	0.496	0.668	0.71	1.1	0.494	0.534	1.09	0.518	1.31	0.79
1.14	0.6	0.605	PMQLPYDSRWE [PDGFRA_Y582]	1.05	0.472	0.623	0.523	0.712	0.485	0.854	0.665	0.706	0.821	0.353	0.577	0.893
0.847	0.676	0.557	PNRILYRDFRQ [MYH7_Y715_G716R]	0.633	0.544	0.615	0.472	0.573	0.373	0.778	0.307	0.452	0.79	0.574	0.74	0.485
1.16	0.878	0.512	PPGRSYSPFDF [TNS1_Y793_YF]	0.824	0.4	0.599	0.505	0.75	1.1	0.81	0.635	0.6	0.843	0.598	0.602	0.497
0.753	0.631	0.405	PRDGEYFTLQI [TP53_Y327_L323R]	2.81	1.31	1.19	11.7	8.55	0.775	1.38	2.55	2.14	3.26	0.93	1.75	3.76
